This note sets out measurements from publication PMC8996237.

For test [1], the target named is hCMP-mRBD from a stable CHO suspension cell line (human | HIV-1 JR-FL | SARS-CoV-2) (UniProt P0DTC2). The test is described as follows: SDS-PAGE.
In test [2] the target is hCMP-mRBD from a stable HEK293 suspension cell line (human | HIV-1 JR-FL | SARS-CoV-2) (UniProt P0DTC2). In words: SDS-PAGE.

Consider “hCMP-mRBD from a stable CHO suspension cell line (from UniProt P0DTC2 332-532)”, for which, in test [1], the stoichiometry N (commonly the number of molecules, sites or subunits per partner or assembly) was found to be 3.

The substance “hCMP-mRBD from a stable HEK293 suspension cell line (from UniProt P0DTC2 332-532)” returned a stoichiometry N in test [2] of 3.
